Source: patent publication US12398178 (PARABILIS MEDICINES, dated 2025)
Positions of bridges follow the written chain, without caps; N, C: chain ends. No end group written: not given here. Linker 15a = not defined here; Linker 15b = not defined here; Linker 10 = not defined here; Linker 11 = not defined here; Linker 12 = not defined here; Linker 13 = not defined here; Linker 16 = not defined here; Linker 7 = not defined here

B1: Peptide ID 33, ADPATHRCEWAALHCELV, staple type Linker 12 (peptide)
peptide: ADPATHRCEWAALHCELV
modifications: linker 8-15 via Linker 12 (inferred); reading uncertain
notes: synthetic cysteine-stapled peptide
B2: Peptide ID 42, ADPALWACEHAALICETQ, staple type Linker 12 (peptide)
peptide: ADPALWACEHAALICETQ
modifications: linker 8-15 via Linker 12 (inferred); reading uncertain
notes: as for B1
B3: Peptide ID 10, ADPAQWHCEHAALICELD, staple type Linker 7 (peptide)
peptide: ADPAQWHCEHAALICELD
modifications: linker 8-15 via Linker 7 (inferred); reading uncertain
notes: as for B1
B4: Peptide ID 4, ADPALADCILAAHMCQLW, staple type Linker 7 (peptide)
peptide: ADPALADCILAAHMCQLW
modifications: linker 8-15 via Linker 7 (inferred); reading uncertain
notes: as for B1
B5: Peptide ID 34, ADPATHRCEWAALHCELV, staple type Linker 13 (peptide)
peptide: ADPATHRCEWAALHCELV
modifications: linker 8-15 via Linker 13 (inferred); reading uncertain
notes: as for B1
B6: Peptide ID 14, ADPAQWPCEHAALLCEIE, staple type Linker 7 (peptide)
peptide: ADPAQWPCEHAALLCEIE
modifications: linker 8-15 via Linker 7 (inferred); reading uncertain
notes: as for B1
B7: Peptide ID 44, ADPALWACEHAALICETQ, staple type Linker 15a (peptide)
peptide: ADPALWACEHAALICETQ
modifications: linker 8-15 via Linker 15a (inferred); reading uncertain
notes: as for B1
B8: Peptide ID 13, ADPAYWLCEHAALICEVE, staple type Linker 7 (peptide)
peptide: ADPAYWLCEHAALICEVE
modifications: linker 8-15 via Linker 7 (inferred); reading uncertain
notes: as for B1
B9: Peptide ID 45, ADPALWACEHAALICETQ, staple type Linker 15b (peptide)
peptide: ADPALWACEHAALICETQ
modifications: linker 8-15 via Linker 15b (inferred); reading uncertain
notes: as for B1
B10: Peptide ID 5, ADPAHAECVLDYHICQIW, staple type Linker 7 (peptide)
peptide: ADPAHAECVLDYHICQIW
modifications: linker 8-15 via Linker 7 (inferred); reading uncertain
notes: as for B1
B11: Peptide ID 11, ADPAPWQCEHAALLCELE, staple type Linker 7 (peptide)
peptide: ADPAPWQCEHAALLCELE
modifications: linker 8-15 via Linker 7 (inferred); reading uncertain
notes: as for B1
B12: Peptide ID 6, ADPAQDHCILDTHICRIW, staple type Linker 7 (peptide)
peptide: ADPAQDHCILDTHICRIW
modifications: linker 8-15 via Linker 7 (inferred); reading uncertain
notes: as for B1
B13: Peptide ID 1, ADPATHRCEWAALHCELV, staple type Linker 7 (peptide)
peptide: ADPATHRCEWAALHCELV
modifications: linker 8-15 via Linker 7 (inferred); reading uncertain
notes: as for B1
B14: Peptide ID 40, ADPALWACEHAALICETQ, staple type Linker 10 (peptide)
peptide: ADPALWACEHAALICETQ
modifications: linker 8-15 via Linker 10 (inferred); reading uncertain
notes: as for B1
B15: Peptide ID 41, ADPALWACEHAALICETQ, staple type Linker 11 (peptide)
peptide: ADPALWACEHAALICETQ
modifications: linker 8-15 via Linker 11 (inferred); reading uncertain
notes: as for B1
B16: Peptide ID 2, ADPALWACEHAALICETQ, staple type Linker 7 (peptide)
peptide: ADPALWACEHAALICETQ
modifications: linker 8-15 via Linker 7 (inferred); reading uncertain
notes: as for B1
B17: Peptide ID 7, ADPAEDECILNNHICRIW, staple type Linker 7 (peptide)
peptide: ADPAEDECILNNHICRIW
modifications: linker 8-15 via Linker 7 (inferred); reading uncertain
notes: as for B1
B18: Peptide ID 8, ADPAEDECILAAHMCRWW, staple type Linker 7 (peptide)
peptide: ADPAEDECILAAHMCRWW
modifications: linker 8-15 via Linker 7 (inferred); reading uncertain
notes: as for B1
B19: Peptide ID 12, ADPADWECEHAALICDAM, staple type Linker 7 (peptide)
peptide: ADPADWECEHAALICDAM
modifications: linker 8-15 via Linker 7 (inferred); reading uncertain
notes: as for B1
B20: Peptide ID 46, ADPALWACEHAALICETQ, staple type Linker 16 (peptide)
peptide: ADPALWACEHAALICETQ
modifications: linker 8-15 via Linker 16 (inferred); reading uncertain
notes: as for B1
B21: Peptide ID 43, ADPALWACEHAALICETQ, staple type Linker 13 (peptide)
peptide: ADPALWACEHAALICETQ
modifications: linker 8-15 via Linker 13 (inferred); reading uncertain
notes: as for B1
B22: Peptide ID 32, ADPATHRCEWAALHCELV, staple type Linker 11 (peptide)
peptide: ADPATHRCEWAALHCELV
modifications: linker 8-15 via Linker 11 (inferred); reading uncertain
notes: as for B1

The binders below were run against T1, full-length β-Catenin (UniProt P35222 2-781, limits assumed) (assay: competition fluorescence polarization vs FITC-Axin peptide probe on full-length beta-catenin).
T1 construct: mature; also called beta-catenin; beta-Catenin
T1 sequence (looked up): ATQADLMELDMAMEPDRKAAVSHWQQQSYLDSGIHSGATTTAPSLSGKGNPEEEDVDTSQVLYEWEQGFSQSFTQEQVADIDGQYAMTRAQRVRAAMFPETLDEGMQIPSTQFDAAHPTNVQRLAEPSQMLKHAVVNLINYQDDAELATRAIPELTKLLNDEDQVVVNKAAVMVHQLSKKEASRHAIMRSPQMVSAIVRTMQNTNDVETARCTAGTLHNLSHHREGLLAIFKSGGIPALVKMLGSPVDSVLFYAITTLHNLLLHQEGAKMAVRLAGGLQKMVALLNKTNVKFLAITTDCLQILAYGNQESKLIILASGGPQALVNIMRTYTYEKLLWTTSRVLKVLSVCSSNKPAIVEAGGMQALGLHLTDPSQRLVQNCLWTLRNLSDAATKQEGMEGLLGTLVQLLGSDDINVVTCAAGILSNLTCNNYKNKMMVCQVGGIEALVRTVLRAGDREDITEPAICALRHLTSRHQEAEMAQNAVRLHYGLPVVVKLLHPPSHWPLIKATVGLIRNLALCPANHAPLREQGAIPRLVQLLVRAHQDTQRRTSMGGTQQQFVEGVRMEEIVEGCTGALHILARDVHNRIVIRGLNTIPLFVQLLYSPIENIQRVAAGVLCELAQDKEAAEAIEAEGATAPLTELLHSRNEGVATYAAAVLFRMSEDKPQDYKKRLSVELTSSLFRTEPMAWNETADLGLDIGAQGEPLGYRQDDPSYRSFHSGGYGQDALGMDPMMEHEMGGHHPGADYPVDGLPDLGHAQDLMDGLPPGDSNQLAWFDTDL
Method: Peptide assessment: In one assay for assessing binding to beta-catenin, peptide solutions were prepared in buffer (50 mM Tris pH 8.0, 250 mM NaCl, 2% glycerol, 0.5 mM EDTA, 0.02% w/v sodium azide) using a 3-fold serial dilution from 5 μM. Probe solution (15 nM full-length β-Catenin, 20 nM FITC labeled Axin peptide in buffer ([FAM-PEG1-RRWPR(S5)ILD(S5)HVRRVWR (SEQ ID NO: 44)] where the two S5 residues are stapled, as reported in: Proc Natl Acad Sci USA. 2012 Oct. 30; 109(44):17942-7)) was prepared and incubated for 5 minutes, then 40 μL per well plated in a black polystyrene 384-well plate (Corning). Equal volume of the titrated peptide was added to the plate and incubated protected from light for 15 minutes prior to read. Reads were performed on a Spectramax M5 (Molecular Devices) in duplicate.
In the case of B1, the EC50 is reported as 5.35 µM.
Work on B2 yielded an EC50 of 4.52 µM.
B3 was tested, and the EC50 was 0.417 µM.
With B4 the EC50 was 5.52 µM.
B5 gave an EC50 of 4.32 µM.
For B6, the EC50 was 0.404 µM.
B7 showed an EC50 of 7.33 µM.
B8 was tested, and the EC50 was 0.456 µM.
In the case of B9, the EC50 is reported as 5.57 µM.
Work on B10 yielded an EC50 of 0.117 µM.
B11 gave an EC50 of 0.922 µM.
B12 was tested, and the EC50 was 0.047 µM.
With B13 the EC50 was 5.2 µM.
B14 showed an EC50 of 9.55 µM.
B15 gave an EC50 of 3.02 µM.
In the case of B16, the EC50 is reported as 2.8 µM.
B17 showed an EC50 of 0.014 µM.
In the case of B18, the EC50 is reported as 0.255 µM.
B19 gave an EC50 of 0.815 µM.
Binder B20 has an EC50 of 5.82 µM.
Binder B21 has an EC50 of 4.59 µM.
B22 was tested, and the EC50 was 5.17 µM.
